Measurements from US9132174 (ANCHORED RSK3 INHIBITORS, dated 2015).

T1: His-tagged mAKAP 1286-1833 (bacterially expressed) (UniProt Q9WVC7 1286-1833)
T1 chain: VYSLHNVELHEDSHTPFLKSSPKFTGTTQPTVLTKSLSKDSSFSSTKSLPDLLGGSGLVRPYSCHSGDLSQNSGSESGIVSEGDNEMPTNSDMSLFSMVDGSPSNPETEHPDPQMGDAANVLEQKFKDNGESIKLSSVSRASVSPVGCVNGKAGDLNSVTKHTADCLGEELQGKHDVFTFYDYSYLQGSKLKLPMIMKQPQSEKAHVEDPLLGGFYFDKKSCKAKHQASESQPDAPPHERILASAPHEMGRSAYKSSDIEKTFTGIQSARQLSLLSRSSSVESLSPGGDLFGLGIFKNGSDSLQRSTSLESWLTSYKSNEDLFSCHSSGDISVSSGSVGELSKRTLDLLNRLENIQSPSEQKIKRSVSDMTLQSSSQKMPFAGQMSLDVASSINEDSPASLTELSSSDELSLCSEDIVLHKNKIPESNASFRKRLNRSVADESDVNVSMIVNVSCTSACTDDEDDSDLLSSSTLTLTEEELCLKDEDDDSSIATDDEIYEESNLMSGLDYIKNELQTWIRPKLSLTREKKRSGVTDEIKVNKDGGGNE

T2: His-tagged mAKAP 1286-1833 (bacterially expressed) (UniProt Q9WVC7 1286-1833)
T2 construct: Covalently immobilised by amine coupling on a CM5 chip, 200 resonance units; not shown: His tag (pET30 parent vector)
T2 sequence (looked up): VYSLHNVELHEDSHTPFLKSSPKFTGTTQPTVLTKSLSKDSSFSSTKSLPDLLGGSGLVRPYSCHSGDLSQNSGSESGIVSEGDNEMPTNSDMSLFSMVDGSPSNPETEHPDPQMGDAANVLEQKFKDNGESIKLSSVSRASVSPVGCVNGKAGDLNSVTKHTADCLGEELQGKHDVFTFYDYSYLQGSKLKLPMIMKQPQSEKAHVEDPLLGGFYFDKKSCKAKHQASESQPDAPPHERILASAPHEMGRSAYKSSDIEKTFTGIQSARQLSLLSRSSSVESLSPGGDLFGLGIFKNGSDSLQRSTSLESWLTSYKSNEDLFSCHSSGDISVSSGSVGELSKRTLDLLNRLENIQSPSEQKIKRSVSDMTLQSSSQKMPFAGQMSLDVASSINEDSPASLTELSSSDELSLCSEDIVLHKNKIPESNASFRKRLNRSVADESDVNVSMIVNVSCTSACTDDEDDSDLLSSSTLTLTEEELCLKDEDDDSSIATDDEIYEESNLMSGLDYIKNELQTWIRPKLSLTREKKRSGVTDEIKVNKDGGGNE


Legend:
[1] = biological target: T1, His-tagged mAKAP 1286-1833 (bacterially …); assay: SPR; unphosphorylated RSK3
[2] = biological target: T2, His-tagged mAKAP 1286-1833 (bacterially …); assay: SPR (BIAcore T100), His-mAKAP 1286-1833 immobilised, phospho-His-RSK3 as analyte
Text: Figure 7: FIG. 7. The p90 ribosomal S6 kinase type 3 (RSK3) binding site within muscle A-kinase anchoring protein (mAKAP). A, mAKAP domain structure. […] All fragments are numbered per mAKAPα. The grey bar indicates the RSK3 binding site. B-F, Specific tag antibodies were used to immunoprecipitate myc-tagged mAKAPβ and HA-tagged p90 ribosomal S6 kinase (RSK) proteins (see FIG. 4A) co-expressed in either HEK293 (B) or COS-7 (C-F) cells (n=3) for all panels. G, Surface plasmon resonance using purified bacterially expressed proteins. […] Each curve was repeated 3 times using different protein preparations.
Surface Plasmon Resonance: SPR analysis was performed using a BIAcore T100. […] (Biacore amine coupling kit) to the surface of a sensor chip (BIAcore type CM5). His-RSK3 analytes (6.25-200 nmol/L) in HBS buffer (10 mmol/L Hepes, pH 7.4, 150 mmol/L NaCl, and 0.005% Surfactant P20) were injected at a flow rate of 30 μL/min for 5 minutes, followed by buffer alone for another 5 minutes. Sensorgrams were processed by BIAcore T100 evaluation software.

[3] = biological target: T1, His-tagged mAKAP 1286-1833 (bacterially …); assay: SPR; ERK- and PDK1-phosphorylated RSK3
[4] = biological target: T1, His-tagged mAKAP 1286-1833 (bacterially …); assay: SPR; ERK-phosphorylated RSK3

Binder	Kd [1] [nM]	fold decrease in binding affinity against unphosphorylated RSK3 [2] [fold]	Kd [3] [nM]	Kd [4] [nM]
His-tagged full-length RSK3, unphosphorylated (bacterially expressed) (enzyme) MDLSMKKFAVRRFFSVYLRRKSRSKSSSLSRLEEEGVVKEIDISHHVKEGFEKADPSQFELLKVLGQGSYGKVFLVRKVKGSDAGQLYAMKVLKKATLKVRDRVRSKMERDILAEVNHPFIVKLHYAFQTEGKLYLILDFLRGGDLFTRLSKEVMFTEEDVKFYLAELALALDHLHSLGIIYRDLKPENILLDEEGHIKITDFGLSKEAIDHDKRAYSFCGTIEYMAPEVVNRRGHTQSADWWSFGVLMFEMLTGSLPFQGKDRKETMALILKAKLGMPQFLSGEAQSLLRALFKRNPCNRLGAGIDGVEEIKRHPFFVTIDWNTLYRKEIKPPFKPAVGRPEDTFHFDPEFTARTPTDSPGVPPSANAHHLFRGFSFVASSLIQEPSQQDLHKVPVHPIVQQLHGNNIHFTDGYEIKEDIGVGSYSVCKRCVHKATDTEYAVKIIDKSKRDPSEEIEILLRYGQHPNIITLKDVYDDGKFVYLVMELMRGGELLDRILRQRYFSEREASDVLCTITKTMDYLHSQGVVHRDLKPSNILYRDESGSPESIRVCDFGFAKQLRAGNGLLMTPCYTANFVAPEVLKRQGYDAACDIWSLGILLYTMLAGFTPFANGPDDTPEEILARIGSGKYALSGGNWDSISDAAKDVVSKMLHVDPHQRLTAMQVLKHPWVVNREYLSPNQLSRQDVHLVKGAMAATYFALNRTPQAPRLEPVLSSNLAQRRGMKRLTSTRL	1.6	–	–	–
ERK and PDK1-phosphorylated His-RSK3 (enzyme, phosphorylated in vitro with ERK2 and PDK1; sites of this preparation not given, also called Phospho-His-RSK3 (ERK2 and PDK1); not shown: His tag) MDLSMKKFAVRRFFSVYLRRKSRSKSSSLSRLEEEGVVKEIDISHHVKEGFEKADPSQFELLKVLGQGSYGKVFLVRKVKGSDAGQLYAMKVLKKATLKVRDRVRSKMERDILAEVNHPFIVKLHYAFQTEGKLYLILDFLRGGDLFTRLSKEVMFTEEDVKFYLAELALALDHLHSLGIIYRDLKPENILLDEEGHIKITDFGLSKEAIDHDKRAYSFCGTIEYMAPEVVNRRGHTQSADWWSFGVLMFEMLTGSLPFQGKDRKETMALILKAKLGMPQFLSGEAQSLLRALFKRNPCNRLGAGIDGVEEIKRHPFFVTIDWNTLYRKEIKPPFKPAVGRPEDTFHFDPEFTARTPTDSPGVPPSANAHHLFRGFSFVASSLIQEPSQQDLHKVPVHPIVQQLHGNNIHFTDGYEIKEDIGVGSYSVCKRCVHKATDTEYAVKIIDKSKRDPSEEIEILLRYGQHPNIITLKDVYDDGKFVYLVMELMRGGELLDRILRQRYFSEREASDVLCTITKTMDYLHSQGVVHRDLKPSNILYRDESGSPESIRVCDFGFAKQLRAGNGLLMTPCYTANFVAPEVLKRQGYDAACDIWSLGILLYTMLAGFTPFANGPDDTPEEILARIGSGKYALSGGNWDSISDAAKDVVSKMLHVDPHQRLTAMQVLKHPWVVNREYLSPNQLSRQDVHLVKGAMAATYFALNRTPQAPRLEPVLSSNLAQRRGMKRLTSTRL	–	8	12.7	–
ERK-phosphorylated His-RSK3 (enzyme, phosphorylated in vitro with ERK2; sites of this preparation not given, also called Phospho-His-RSK3 (ERK2); not shown: His tag) MDLSMKKFAVRRFFSVYLRRKSRSKSSSLSRLEEEGVVKEIDISHHVKEGFEKADPSQFELLKVLGQGSYGKVFLVRKVKGSDAGQLYAMKVLKKATLKVRDRVRSKMERDILAEVNHPFIVKLHYAFQTEGKLYLILDFLRGGDLFTRLSKEVMFTEEDVKFYLAELALALDHLHSLGIIYRDLKPENILLDEEGHIKITDFGLSKEAIDHDKRAYSFCGTIEYMAPEVVNRRGHTQSADWWSFGVLMFEMLTGSLPFQGKDRKETMALILKAKLGMPQFLSGEAQSLLRALFKRNPCNRLGAGIDGVEEIKRHPFFVTIDWNTLYRKEIKPPFKPAVGRPEDTFHFDPEFTARTPTDSPGVPPSANAHHLFRGFSFVASSLIQEPSQQDLHKVPVHPIVQQLHGNNIHFTDGYEIKEDIGVGSYSVCKRCVHKATDTEYAVKIIDKSKRDPSEEIEILLRYGQHPNIITLKDVYDDGKFVYLVMELMRGGELLDRILRQRYFSEREASDVLCTITKTMDYLHSQGVVHRDLKPSNILYRDESGSPESIRVCDFGFAKQLRAGNGLLMTPCYTANFVAPEVLKRQGYDAACDIWSLGILLYTMLAGFTPFANGPDDTPEEILARIGSGKYALSGGNWDSISDAAKDVVSKMLHVDPHQRLTAMQVLKHPWVVNREYLSPNQLSRQDVHLVKGAMAATYFALNRTPQAPRLEPVLSSNLAQRRGMKRLTSTRL	–	5	–	7.3
